Substitutions are numbered along the chain they refer to. Names and notes keep the numbering of the source.
B1: VHH-72(S57G) (VHH)
VHH: QVQLQESGGGLVQAGGSLRLSCAASGRTFSEYAMGWFRQAPGKEREFVATISWSGGGTYYTDSVKGRFTISRDNAKNTVYLQMNSLKPDDTAVYYCAAAGLGTVVSEWDYDYDYWGQGTQVTVSS
B2: VHH-72 (S57Y) (VHH)
VHH: B1 VHH with G57Y
B3: VHH-72 variant expressing both S57A and D61A (VHH)
VHH: B1 VHH with G57A, D62A
B4: VHH-72 (S57A, Y60H) (VHH)
VHH: B1 VHH with G57A, Y60H
B5: VHH-72(S57S) (VHH)
VHH: B1 VHH with G57S
B6: VHH-72 (S57A) (VHH)
VHH: B1 VHH with G57A
B7: VHH-72(D61A) (VHH)
VHH: B1 VHH with G57S, D62A
B8: VHH-72 (S57A, Y60T) (VHH)
VHH: B1 VHH with G57A, Y60T
B9: VHH-72(S57T) (VHH)
VHH: B1 VHH with G57T

How the values were obtained:
[1] = target: T1, SARS-CoV-2 RBD (SinoBiological, Cat. No. 40592-V02H) (SARS-CoV-2, UniProt P0DTC2 319-541); assay: ELISA on SARS-CoV-2 RBD
T1 construct: domain: RBD

[2] = target: T1, SARS-CoV-2 RBD (SinoBiological, Cat. …); assay: ELISA on RBD, compared with wildtype VHH-72
[3] = target: T1, SARS-CoV-2 RBD (SinoBiological, Cat. …); assay: ELISA on RBD
[4] = target: T1, SARS-CoV-2 RBD (SinoBiological, Cat. …)
[5] = target: T1, SARS-CoV-2 RBD (SinoBiological, Cat. …); assay: ELISA, relative EC50

Binder	Rel. EC50 - ELISA [1]	EC50 [3]	further results
B1	0.09 relative to WT		
B2	0.28 relative to WT		fold increased apparent affinity [2]: ~4 fold
B3		0.012 µg/mL	fold improved binding compared to the wildtype VHH-72 [2]: > 160 fold
B4		0.029 µg/mL	fold further-increased apparent RBD affinity [4]: ~3.5 fold
B5	1 relative to WT		
B6	0.05 relative to WT	0.09 µg/mL	fold increase in RBD affinity [2]: 22 fold
B7		0.51 µg/mL	fold increased RBD binding [2]: 4 fold
B8		0.024 µg/mL	fold further-increased apparent RBD affinity [4]: ~3.5 fold
B9			binding result [5]: no binding

Reference: patent US20240059759A1 (BIGHAT BIOSCIENCES, published 2024)
